Sequences and labels used below:
B1: D2A1(G4S)4 (bispecific antibody)
chain: DVQLQESGGGLVEAGGSLRLSCVASGRTFSGWSMGWFRQAPGKEREFVAAISWVGSWIGGTVYSNSVKGRFTISRDNARTTVYLQMNSLKPEDTAVYFCAAANSETPRIFASEYDYWGQGTQVTVSGGGGSGGGGSGGGGSGGGGSEVQLLESGGGLVQPGGSLRLSCAASGFTFGNYDMAWVRQAPGKRPEWVSSIDTGGDITHYADSVKGRFTISRDNAKNTLYLQMNSLRPEDTAVYWCATDEEYALGPNEFDYYGQGTLVTVS
B2: A1B3(G4S)4 (bispecific antibody)
chain: EVQLLESGGGLVQPGGSLRLSCAASGFTFGNYDMAWVRQAPGKRPEWVSSIDTGGDITHYADSVKGRFTISRDNAKNTLYLQMNSLRPEDTAVYWCATDEEYALGPNEFDYYGQGTLVTVSGGGGSGGGGSGGGGSGGGGSDVQLQESGGGLVQAGGSLRLSCAASGFIFRLAGMSWVRQAPGKGFEWVSGITMDGSTTNYADSVKGRFTISRDNSKNRLYLQMNSLKPEDTAVYYCARGAKGGYNDPRGQGTQVTVS
B3: B1A1(G4S)4 (bispecific antibody)
chain: QVQLQESGGGLVQTGGSLRLSCAVHGRTFSNTGMGWFRQAPGNERQFVAIISPSGTSTYYADSVKGRFTISRDPAKNTVYLQMNSLKMDDTAVYYCAASYGSNWSTLRHQRRNEYDAWGQGTQVAVSGGGGSGGGGSGGGGSGGGGSEVQLLESGGGLVQPGGSLRLSCAASGFTFGNYDMAWVRQAPGKRPEWVSSIDTGGDITHYADSVKGRFTISRDNAKNTLYLQMNSLRPEDTAVYWCATDEEYALGPNEFDYYGQGTLVTVS
notes: two sdAbs linked by a peptide linker
B4: CIgG4B1A1(EAAAK) (Fc fusion)
chain 1: GPPCPPCPAPEFLGGPSVFLFPPKPKDTLMISRTPEVTCVVVDVSQEDPEVQFNWYVDGVEVHNAKTKPREEQFNSTYRVVSVLTVLHQDWLNGKEYKCKVSNKGLPSSIEKTISKAKGQPREPQVYTLPPCQEEMTKNQVSLWCLVKGFYPSDIAVEWESNGQPENNYKTTPPVLDSDGSFFLYSRLTVDKSRWQEGNVFSCSVMHEALHNHYTQKSLSLSLGKEAAAKQVQLQESGGGLVQTGGSLRLSCAVHGRTFSNTGMGWFRQAPGNERQFVAIISPSGTSTYYADSVKGRFTISRDPAKNTVYLQMNSLKMDDTAVYYCAASYGSNWSTLRHQRRNEYDAWGQGTQVAVS
chain 2: GPPCPPCPAPEFLGGPSVFLFPPKPKDTLMISRTPEVTCVVVDVSQEDPEVQFNWYVDGVEVHNAKTKPREEQFNSTYRVVSVLTVLHQDWLNGKEYKCKVSNKGLPSSIEKTISKAKGQPREPQVCTLPPSQEEMTKNQVSLSCAVKGFYPSDIAVEWESNGQPENNYKTTPPVLDSDGSFFLVSRLTVDKSRWQEGNVFSCSVMHEALHNHYTQKSLSLSLGKEAAAKEVQLLESGGGLVQPGGSLRLSCAASGFTFGNYDMAWVRQAPGKRPEWVSSIDTGGDITHYADSVKGRFTISRDNAKNTLYLQMNSLRPEDTAVYWCATDEEYALGPNEFDYYGQGTLVTVSS
B5: sdAb E2 (VHH)
VHH: DVQLQESGGGLVQAGGSLRLSCAASGRTISRYAVGWFRRPPAKEREFIGINWSGGSTTYADSAEGRFIISRDNAKNTVYLQMNSLKPEDTAVYYCAVPSVLVQGGISNPSQYDYWGQGTQVTVS
B6: A1A1(G4S)4 (VHH)
chain: EVQLLESGGGLVQPGGSLRLSCAASGFTFGNYDMAWVRQAPGKRPEWVSSIDTGGDITHYADSVKGRFTISRDNAKNTLYLQMNSLRPEDTAVYWCATDEEYALGPNEFDYYGQGTLVTVSGGGGSGGGGSGGGGSGGGGSEVQLLESGGGLVQPGGSLRLSCAASGFTFGNYDMAWVRQAPGKRPEWVSSIDTGGDITHYADSVKGRFTISRDNAKNTLYLQMNSLRPEDTAVYWCATDEEYALGPNEFDYYGQGTLVTVS
notes: monospecific, bivalent control of two A1 linked by (G4S)4
B7: sdAb E1 (VHH)
VHH: DVQLQESGGGLVQAGGSLRLSCLASGRTFTTTSGYNMGWFRQAPGKEREFVAGIKWVSGSNRAYAESVKGRFTISRDNAKNTVYLQMNSLKPEDTAVYYCAAATGQSYVPIREYEYVYWGQGTQVTVS
B8: A1D2(G4S)4 (bispecific antibody)
chain: EVQLLESGGGLVQPGGSLRLSCAASGFTFGNYDMAWVRQAPGKRPEWVSSIDTGGDITHYADSVKGRFTISRDNAKNTLYLQMNSLRPEDTAVYWCATDEEYALGPNEFDYYGQGTLVTVSGGGGSGGGGSGGGGSGGGGSDVQLQESGGGLVEAGGSLRLSCVASGRTFSGWSMGWFRQAPGKEREFVAAISWVGSWIGGTVYSNSVKGRFTISRDNARTTVYLQMNSLKPEDTAVYFCAAANSETPRIFASEYDYWGQGTQVTVS
B9: CIgG4B1A1(EAAAK)2 (Fc fusion)
chain 1: GPPCPPCPAPEFLGGPSVFLFPPKPKDTLMISRTPEVTCVVVDVSQEDPEVQFNWYVDGVEVHNAKTKPREEQFNSTYRVVSVLTVLHQDWLNGKEYKCKVSNKGLPSSIEKTISKAKGQPREPQVYTLPPCQEEMTKNQVSLWCLVKGFYPSDIAVEWESNGQPENNYKTTPPVLDSDGSFFLYSRLTVDKSRWQEGNVFSCSVMHEALHNHYTQKSLSLSLGKEAAAKEAAAKQVQLQESGGGLVQTGGSLRLSCAVHGRTFSNTGMGWFRQAPGNERQFVAIISPSGTSTYYADSVKGRFTISRDPAKNTVYLQMNSLKMDDTAVYYCAASYGSNWSTLRHQRRNEYDAWGQGTQVAVS
chain 2: GPPCPPCPAPEFLGGPSVFLFPPKPKDTLMISRTPEVTCVVVDVSQEDPEVQFNWYVDGVEVHNAKTKPREEQFNSTYRVVSVLTVLHQDWLNGKEYKCKVSNKGLPSSIEKTISKAKGQPREPQVCTLPPSQEEMTKNQVSLSCAVKGFYPSDIAVEWESNGQPENNYKTTPPVLDSDGSFFLVSRLTVDKSRWQEGNVFSCSVMHEALHNHYTQKSLSLSLGKEAAAKEAAAKEVQLLESGGGLVQPGGSLRLSCAASGFTFGNYDMAWVRQAPGKRPEWVSSIDTGGDITHYADSVKGRFTISRDNAKNTLYLQMNSLRPEDTAVYWCATDEEYALGPNEFDYYGQGTLVTVSS
B10: B2A1(G4S)4 (bispecific antibody)
chain: QVQLVESGGGLVQAGGSLRLSCAVFGSTFSNNVADWYRQAPGKQRELVARISASGATREYGDSVKGRFTISRDDAKNTMYLQMNNLKPEDTAVYRCHKIEWEDLSRKDYWGQGTQVTVSGGGGSGGGGSGGGGSGGGGSEVQLLESGGGLVQPGGSLRLSCAASGFTFGNYDMAWVRQAPGKRPEWVSSIDTGGDITHYADSVKGRFTISRDNAKNTLYLQMNSLRPEDTAVYWCATDEEYALGPNEFDYYGQGTLVTVS
B11: B3A1(G4S)4 (bispecific antibody)
chain: DVQLQESGGGLVQAGGSLRLSCAASGFIFRLAGMSWVRQAPGKGFEWVSGITMDGSTTNYADSVKGRFTISRDNSKNRLYLQMNSLKPEDTAVYYCARGAKGGYNDPRGQGTQVTVSGGGGSGGGGSGGGGSGGGGSEVQLLESGGGLVQPGGSLRLSCAASGFTFGNYDMAWVRQAPGKRPEWVSSIDTGGDITHYADSVKGRFTISRDNAKNTLYLQMNSLRPEDTAVYWCATDEEYALGPNEFDYYGQGTLVTVS
B12: A1B2(G4S)4 (bispecific antibody)
chain: EVQLLESGGGLVQPGGSLRLSCAASGFTFGNYDMAWVRQAPGKRPEWVSSIDTGGDITHYADSVKGRFTISRDNAKNTLYLQMNSLRPEDTAVYWCATDEEYALGPNEFDYYGQGTLVTVSGGGGSGGGGSGGGGSGGGGSQVQLVESGGGLVQAGGSLRLSCAVFGSTFSNNVADWYRQAPGKQRELVARISASGATREYGDSVKGRFTISRDDAKNTMYLQMNNLKPEDTAVYRCHKIEWEDLSRKDYWGQGTQVTVS
B13: A1B1(G4S)4 (bispecific antibody)
chain: EVQLLESGGGLVQPGGSLRLSCAASGFTFGNYDMAWVRQAPGKRPEWVSSIDTGGDITHYADSVKGRFTISRDNAKNTLYLQMNSLRPEDTAVYWCATDEEYALGPNEFDYYGQGTLVTVSGGGGSGGGGSGGGGSGGGGSQVQLQESGGGLVQTGGSLRLSCAVHGRTFSNTGMGWFRQAPGNERQFVAIISPSGTSTYYADSVKGRFTISRDPAKNTVYLQMNSLKMDDTAVYYCAASYGSNWSTLRHQRRNEYDAWGQGTQVAVS
B14: F1A1(G4S)4 (bispecific antibody)
chain: DVQLQESGGGLVQAGGSLKLSCAASGGSLSRYDMGWFRQAPGKEREFVARISWSGTTKYYADAVKGRFAISRDNAKNTVYLQMNSLKPEDTAVYYCAAAFYGNRGYYDVNAYTSSGQGTQVTVSGGGGSGGGGSGGGGSGGGGSEVQLLESGGGLVQPGGSLRLSCAASGFTFGNYDMAWVRQAPGKRPEWVSSIDTGGDITHYADSVKGRFTISRDNAKNTLYLQMNSLRPEDTAVYWCATDEEYALGPNEFDYYGQGTLVTVS

One assay deals with T1, recombinant human IgE (human, UniProt P01854-1 1-428).
T1 construct: made in-house (ALK); preloaded on immobilised FcεRIα in the displacement ELISA
T1 sequence (P01854 other isoform, or with tags, fused parts or gaps): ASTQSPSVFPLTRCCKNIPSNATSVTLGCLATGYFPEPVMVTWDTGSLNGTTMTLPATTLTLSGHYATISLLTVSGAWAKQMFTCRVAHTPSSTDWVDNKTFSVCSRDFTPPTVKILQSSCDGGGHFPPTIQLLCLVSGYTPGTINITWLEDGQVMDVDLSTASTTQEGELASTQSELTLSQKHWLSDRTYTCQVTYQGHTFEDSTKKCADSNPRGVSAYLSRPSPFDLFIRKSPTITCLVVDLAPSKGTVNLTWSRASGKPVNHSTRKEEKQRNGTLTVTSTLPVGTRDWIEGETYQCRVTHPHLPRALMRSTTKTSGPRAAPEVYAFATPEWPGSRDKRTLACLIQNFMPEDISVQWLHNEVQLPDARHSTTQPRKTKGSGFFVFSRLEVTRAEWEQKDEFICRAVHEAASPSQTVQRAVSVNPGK
Briefly: IgE-FcεRIα displacement ELISA. An outline of the steps:
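sdAbs at pM–μM were incubated 1 h on preformed complexes of 13 ng/ml recombinant human IgE with avi-tag-biotinylated human FcεRIα captured on streptavidin.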
For orientation: ELISA stands for enzyme-linked immunosorbent assay.
The term EC50 denotes the concentration at which the effect is half-maximal. Take B1: the EC50 was 8 nM and the Max effect is above 95%.
As to B2, the EC50 was 190 nM and the Max effect was determined as 80%.
B3: the EC50 was 1.9 nM and the Max effect is above 95%.
On the same counts, the results for B4 are 3 nM and above 95%.
On to B5, for which the Max effect was found to be 0%.
Take B6: the EC50 was found to be 250 nM and the Max effect amounted to 90%.
In the case of B7, the Max effect was below 20%.
For B8, the EC50 was 10 nM and the Max effect was above 95%.
On the same counts, the results for B9 are 4.1 nM and above 95%.
On the same counts, the results for B10 are 30 nM and above 95%.
On the same counts, the results for B11 are 0.3 nM and above 95%.
With B12, the EC50 is 1.4 nM and the Max effect is above 95%.
On the same counts, the results for B13 are 0.9 nM and above 95%.
On the same counts, the results for B14 are 4000 nM and above 95%.

For another assay, the target named is T2, IgE-Fc Cε3-4 (human, UniProt P01854-1 209-428, limits assumed).
T2 construct: domain: Cε3-Cε4; coated at 2 µg/mL in the ELISA; also called IgE-Fc Cε3-Cε4
T2 sequence (P01854 other isoform, or with tags, fused parts or gaps limits assumed): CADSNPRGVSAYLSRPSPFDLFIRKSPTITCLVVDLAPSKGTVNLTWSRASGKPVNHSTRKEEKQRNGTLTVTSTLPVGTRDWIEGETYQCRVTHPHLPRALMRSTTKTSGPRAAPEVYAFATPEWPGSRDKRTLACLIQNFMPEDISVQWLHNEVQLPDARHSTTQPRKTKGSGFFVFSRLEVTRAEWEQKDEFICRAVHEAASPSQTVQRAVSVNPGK
Briefly: ELISA, immobilised IgE-Fc Cε3-4. As for the experimental part: SdAb monomers of interest (table 1) and identified in example 2 were amplified from pNT plasmid by PCR and recloned in pET22b plasmid by SLICE cloning reaction. Thereby, a pelB signal sequence and a C-terminal his/HA tag were added to the sdAbs allowing for secretion into periplasmic space and subsequent purification and detection. SdAbs were expressed in E. coli Rosetta (DE3) cells using 2YT media. Expression was induced in early exponential phase with 0.5 mM IPTG and carried overnight at 20° C.-25° C. Purification of sdAbs from supernatant or supernatant+periplasmic extract was performed by IMAC using HisTrap excel column (Cytiva) as first step and by SEC with a Hiload 16-600 Superdex® 75 pg (Cytiva) column as second step. Size and purity of each sdAbs were evaluated on a 15% acrylamide SDS-PAGE. Then, immunoreactivity of sdAbs against immobilized IgE-Fc Cε2-4 and IgE-Fc Cε3-4 was analysed by ELISA. IgE-Fc were coated at 2 μg/mL overnight in a Nunc MaxiSorp plate (ThermoFisher). After blocking sdAbs were added at a 1:10 dilution in TBS and incubated 3h at room temperature. Detection was performed using a mouse anti-HA antibody (ThermoFisher) and an anti-mouse IgG AP conjugated (Sigma Aldrich).
As to B5, the binding result is on record as “no binding”.
B7: the binding result is recorded as “no binding”.

(Values after US20250171562A1 (ALK ABELL, published 2025).)
